# From publication PMC6635533
# Values joined by “and” are separate entries in the source; they are usually repeats but may differ in a detail not shown here. Equal values may be shown once.
# Assays:
# [1] = molecular target: RocAM3 with a C-terminal FLAG tag (amino acids 1 to 416), expressed in GAS M18 strain H566 (strain M3_F) (Streptococcus pyogenes (group A Streptococcus), serotype M3 strain 188); assay: cross-linking; live GAS M18 strains treated with 1% formaldehyde (10 min, room temperature), quenched with 250 mM glycine; protoplast preparations, SDS-PAGE, anti-FLAG blot
# [2] = molecular target: RocA_(FLAG) expressed from a single chromosomal copy in GAS M1 strain 854 (strain 854_chF) (Streptococcus pyogenes (group A Streptococcus), serotype M1 strain 854); assay: cross-linking; formaldehyde cross-linking with GAS M1 strain 854_chF (native expression level); RocA_(FLAG) affinity purified from the protoplast lysate for detection by anti-FLAG blot
# [3] = molecular target: RocA cytoplasmic domain (amino acids 226 to 451) with a C-terminal FLAG tag, expressed in GAS M18 strain H566 (strain CYT_F) (Streptococcus pyogenes (group A Streptococcus), serotype M1 strain 854); assay: cross-linking; live GAS M18 strains treated with 1% formaldehyde (10 min, room temperature), quenched with 250 mM glycine; protoplast preparations, SDS-PAGE, anti-FLAG blot
# [4] = molecular target: RocAM1 with a C-terminal FLAG tag, full length (amino acids 1 to 451), expressed in GAS M18 strain H566 (strain M1_F) (Streptococcus pyogenes (group A Streptococcus), serotype M1 strain 854); assay: as above
substance,measurement,setting,value
"RocAM3 with a C-terminal FLAG tag (amino acids 1 to 416), expressed in GAS M18 strain H566 (strain M3_F) (natural protein)",stoichiometry N,[1],2
RocA_(FLAG) expressed from a single chromosomal copy in GAS M1 strain 854 (strain 854_chF) (natural protein),stoichiometry N,[2],2
"RocA cytoplasmic domain (amino acids 226 to 451) with a C-terminal FLAG tag, expressed in GAS M18 strain H566 (strain CYT_F) (domain or fragment)",stoichiometry N,[3],2
"RocAM1 with a C-terminal FLAG tag, full length (amino acids 1 to 451), expressed in GAS M18 strain H566 (strain M1_F) (natural protein)",stoichiometry N,[4],2 and 4
